First the molecules themselves.
B1: Suppressor of fused homolog (Homo sapiens), Q9UMX1 (parent)
chain: MAELRPSGAPGPTAPPAPGPTAPPAFASLFPPGLHAIYGECRRLYPDQPNPLQVTAIVKYWLGGPDPLDYVSMYRNVGSPSANIPEHWHYISFGLSDLYGDNRVHEFTGTDGPSGFGFELTFRLKRETGESAPPTWPAELMQGLARYVFQSENTFCSGDHVSWHSPLDNSESRIQHMLLTEDPQMQPVQTPFGVVTFLQIVGVCTEELHSAQQWNGQGILELLRTVPIAGGPWLITDMRRGETIFEIDPHLQERVDKGIETDGSNLSGVSAKCAWDDLSRPPEDDEDSRSICIGTQPRRLSGKDTEQIRETLRRGLEINSKPVLPPINPQRQNGLAHDRAPSRKDSLESDSSTAIIPHELIRTRQLESVHLKFNQESGALIPLCLRGRLLHGRHFTYKSITGDMAITFVSTGVEGAFATEEHPYAAHGPWLQILLTEEFVEKMLEDLEDLTSPEEFKLPKEYSWPEKKLKVSILPDVVFDSPLH

The variants in the first experiment derive from B1. Particulars: with gli1_human GLI1, P08151.
For MAELRPSGAPGPTAPPAPGPTAPPAFASLFPPGLHAIYGECRRLYPDQPNPLQVTAIVKYWLGGPDPLDYVSMYRNVGSPSANIPEHWHYISFGLSDLYGDNRVHEFTGTDGPSGFGFELTFRLKRETGESAPPTWPAELMQGLARRVFQSENTFCSGRHVSWHSPLDNSESRIQHMLLTEDPQMQPVQTPFGVVTFLQIVGVCTEELHSAQQWNGQGILELLRTVPIAGGPWLITDMRRGETIFEIDPHLQERVDKGIETDGSNLSGVSAKCAWDDLSRPPEDDEDSRSICIGTQPRRLSGKDTEQIRETLRRGLEINSKPVLPPINPQRQNGLAHDRAPSRKDSLESDSSTAIIPHELIRTRQLESVHLKFNQESGALIPLCLRGRLLHGRHFTYKSITGDMAITFVSTGVEGAFATEEHPYAAHGPWLQILLTEEFVEKMLEDLEDLTSPEEFKLPKEYSWPEKKLKVSILPDVVFDSPLH [Y147R;D159R], the “effect of a mutation on the interaction” value is given as “disrupting interaction”.

For MAELRPSGAPGPTAPPAPGPTAPPAFASLFPPGLHAIYGECRRLYPDQPNPLQVTAIVKYWLGGPDPLDYVSMYRNVGSPSANIPEHWHYISFGLSDLYGDNRVHEFTGTDGPSGFGFELTFRLKRETGESAPPTWPAELMQGLARRVFQSENTFCSGRHVSWHSPLDNSESRIQHMLLTEDPQMQPVQTPFGVVTFLQIVGVCTEELHSAQQWNGQGILELLRTVPIAGGPWLITDMRRGETIFEIDPHLQERVDKGIETDGSNLSGVSAKCAWDDLSRPPEDDEDSRSICIGTQPRRLSGKDTEQIRETLRRGLEINSKPVLPPINPQRQNGLAHDRAPSRKDSLESDSSTAIIPHELIRTRQLESVHLKFNQESGARIPLCLRGRLLHGRHFTYKSITGDMAITFVSTGVEGAFATEEHPYAAHGPWLQILLTEEFVEKMLEDLEDLTSPEEFKLPKEYSWPEKKLKVSILPDVVFDSPLH [Y147R;D159R;L380R], the “effect of a mutation on the interaction” value is given as “disrupting interaction”.

Take MAELRPSGAPGPTAPPAPGPTAPPAFASLFPPGLHAIYGECRRLYPDQPNPLQVTAIVKYWLGGPDPLDYVSMYRNVGSPSANIPEHWHYISFGLSDLYGDNRVHEFTGTDGPSGFGFELTFRLKRETGESAPPTWPAELMQGLARRVFQSENTACSGDHVSWHSPLDNSESRIQHMLLTEDPQMQPVQTPFGVVTFLQIVGVCTEELHSAQQWNGQGILELLRTVPIAGGPWLITDMRRGETIFEIDPHLQERVDKGIETDGSNLSGVSAKCAWDDLSRPPEDDEDSRSICIGTQPRRLSGKDTEQIRETLRRGLEINSKPVLPPINPQRQNGLAHDRAPSRKDSLESDSSTAIIPHELIRTRQLESVHLKFNQESGALIPLCLRGRLLHGRHFTYKSITGDMAITFVSTGVEGAFATEEHPYAAHGPWLQILLTEEFVEKMLEDLEDLTSPEEFKLPKEYSWPEKKLKVSILPDVVFDSPLH [Y147R;F155A]: the “effect of a mutation on the interaction” value was “decreasing interaction”.

The variants in the next experiment derive from B1. The note with it: with gli2_mouse Gli2, Q0VGT2.
Regarding MAELRPSGAPGPTAPPAPGPTAPPAFASLFPPGLHAIYGECRRLYPDQPNPLQVTAIVKYWLGGPDPLDYVSMYRNVGSPSANIPEHWHYISFGLSDLYGDNRVHEFTGTDGPSGFGFELTFRLKRETGESAPPTWPAELMQGLARRVFQSENTFCSGRHVSWHSPLDNSESRIQHMLLTEDPQMQPVQTPFGVVTFLQIVGVCTEELHSAQQWNGQGILELLRTVPIAGGPWLITDMRRGETIFEIDPHLQERVDKGIETDGSNLSGVSAKCAWDDLSRPPEDDEDSRSICIGTQPRRLSGKDTEQIRETLRRGLEINSKPVLPPINPQRQNGLAHDRAPSRKDSLESDSSTAIIPHELIRTRQLESVHLKFNQESGARIPLCLRGRLLHGRHFTYKSITGDMAITFVSTGVEGAFATEEHPYAAHGPWLQILLTEEFVEKMLEDLEDLTSPEEFKLPKEYSWPEKKLKVSILPDVVFDSPLH [Y147R;D159R;L380R], the “effect of a mutation on the interaction” value is reported as “disrupting interaction”.

For D159R, the “effect of a mutation on the interaction” value is on record as “decreasing interaction”.

The next experiment covers variants of B1. The note with it: with gli1_human GLI1, P08151. This is another data set of the same source.
In the case of MAELRPSGAPGPTAPPAPGPTAPPAFASLFPPGLHAIYGECRRLYPDQPNPLQVTAIVKYWLGGPDPLDYVSMYRNVGSPSANIPEHWHYISFGLSDLYGDNRVHEFTGTDGPSGFGFELTFRLKRETGESAPPTWPAELMQGLARRVFQSENTACSGDHVSWHSPLDNSESRIQHMLLTEDPQMQPVQTPFGVVTFLQIVGVCTEELHSAQQWNGQGILELLRTVPIAGGPWLITDMRRGETIFEIDPHLQERVDKGIETDGSNLSGVSAKCAWDDLSRPPEDDEDSRSICIGTQPRRLSGKDTEQIRETLRRGLEINSKPVLPPINPQRQNGLAHDRAPSRKDSLESDSSTAIIPHELIRTRQLESVHLKFNQESGALIPLCLRGRLLHGRHFTYKSITGDMAITFVSTGVEGAFATEEHPYAAHGPWLQILLTEEFVEKMLEDLEDLTSPEEFKLPKEYSWPEKKLKVSILPDVVFDSPLH [Y147R;F155A], the “effect of a mutation on the interaction” value is “disrupting interaction”.

On to MAELRPSGAPGPTAPPAPGPTAPPAFASLFPPGLHAIYGECRRLYPDQPNPLQVTAIVKYWLGGPDPLDYVSMYRNVGSPSANIPEHWHYISFGLSDLYGDNRVHEFTGTDGPSGFGFELTFRLKRETGESAPPTWPAELMQGLARYVFQSENTFCSGAHVSWHSPLDNSESRIQHMLLTEDPQMQPVQTPFGVVTFLQIVGVCTEELHSAQQWNGQGILELLRTVPIAGGPWLITDMRRGETIFEIDPHLQERVDKGIETDGSNLSGVSAKCAWDDLSRPPEDDEDSRSICIGTQPRRLSGKDTEQIRETLRRGLEINSKPVLPPINPQRQNGLAHDRAPSRKDSLESDSSTAIIPHELIRTRQLESVHLKFNQESGALIPLCLRGRLLHGRHFTYKSITGDMAITFVSTGVEGAFATEEHPYAAHGPWLQILLTEEFVEKMLEDLEDLTSPEEFKLPKEYSWPEKKLKVSILPDVVFDSPLH [D159A], for which the “effect of a mutation on the interaction” value is “disrupting interaction”.

Regarding D159R, the “effect of a mutation on the interaction” value was “disrupting interaction”.

Variants of B1 are the subject of another experiment. The note with it: with gli2_mouse Gli2, Q0VGT2. This is another data set of the same source.
With D159R, the “effect of a mutation on the interaction” value is recorded as “disrupting interaction”.

(Values after IntAct's records for PubMed 24217340.)
